Residue numbers refer to the chain shown, from its start.
B1: antibody 11E1 (antibody, V domains shown)
VH: EIQLQQSGPELVKPGASVKVSCKASGYAFTSYNMYWVKQSHGKSLEWIGYIDPYNGGTSYNQKFKGKATLTVDKSSSTAYMHLNSLTSEDSAVYYCARGYGNYKAWFAYWGQGTLVTVSA
VL: DAVMTQTPKFLLVSAGDRVTITCKASQSVTNDVAWYQQKPGQSPKLLIYYASNRYTGVPDRFTGSGYGTDFTFTISTVQAEDLAVYFCQQDYSSLTFGAGTKLELK
B2: antibody 8C7 (antibody, V domains shown)
VH: B1 VH with I2V, T30A, Y35N, E46D, T58S, Q62L, K63T, S77T
VL: SIVMTPTPKFLLVSAGDRVTITCKASQSVSNDVAWYQQKPGQSPKLLIYYASTRYTGVPDRFTGSGYGTDFTFTISTVQAEDLAVYFCQQDYSSLTFGAGTKLELKR
B3: antibody 3C12 (antibody, V domains shown)
VH: B1 VH with E1Q, T30A, Y35N, E46D, T58S, Q62L, K63T, S77T
VL: B2 VL with S1D, I2V, P6Q
B4: antibody 6E1 (antibody, V domains shown)
VH: B1 VH with I2F, S44R, T58S, S85N, G101N
VL: B1 VL with D1S, A2I, V78M

Tests used:
[1] = molecular target: recombinant human CD73-His extracellular domain recombinant protein (soluble dimer) (human) (UniProt P21589); assay: ELISA, recombinant human CD73 coated at 5 µg/ml, antibody titrated
[2] = molecular target: T1, human CD73 expressed at the cell surface (human, UniProt P21589 27-549); assay: cell-based or functional assay
T1 sequence: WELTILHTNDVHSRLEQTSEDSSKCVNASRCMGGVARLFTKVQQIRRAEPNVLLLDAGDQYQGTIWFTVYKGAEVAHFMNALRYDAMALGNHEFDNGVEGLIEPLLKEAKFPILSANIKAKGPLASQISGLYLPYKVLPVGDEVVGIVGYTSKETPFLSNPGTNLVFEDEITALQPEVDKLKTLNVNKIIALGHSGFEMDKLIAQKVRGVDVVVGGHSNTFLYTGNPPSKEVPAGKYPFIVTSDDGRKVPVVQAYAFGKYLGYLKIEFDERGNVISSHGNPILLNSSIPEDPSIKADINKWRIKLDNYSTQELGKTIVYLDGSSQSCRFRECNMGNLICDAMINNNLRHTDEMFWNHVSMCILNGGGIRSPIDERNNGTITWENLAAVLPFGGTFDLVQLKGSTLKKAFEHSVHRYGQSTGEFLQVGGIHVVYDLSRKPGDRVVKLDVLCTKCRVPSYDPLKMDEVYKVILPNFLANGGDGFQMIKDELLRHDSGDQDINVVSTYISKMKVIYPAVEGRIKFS

[3] = molecular target: T2, recombinant human CD73-His extracellular domain recombinant protein (soluble dimer) (human, UniProt P21589 27-547, limits assumed); assay: cell-based or functional assay
T2 sequence: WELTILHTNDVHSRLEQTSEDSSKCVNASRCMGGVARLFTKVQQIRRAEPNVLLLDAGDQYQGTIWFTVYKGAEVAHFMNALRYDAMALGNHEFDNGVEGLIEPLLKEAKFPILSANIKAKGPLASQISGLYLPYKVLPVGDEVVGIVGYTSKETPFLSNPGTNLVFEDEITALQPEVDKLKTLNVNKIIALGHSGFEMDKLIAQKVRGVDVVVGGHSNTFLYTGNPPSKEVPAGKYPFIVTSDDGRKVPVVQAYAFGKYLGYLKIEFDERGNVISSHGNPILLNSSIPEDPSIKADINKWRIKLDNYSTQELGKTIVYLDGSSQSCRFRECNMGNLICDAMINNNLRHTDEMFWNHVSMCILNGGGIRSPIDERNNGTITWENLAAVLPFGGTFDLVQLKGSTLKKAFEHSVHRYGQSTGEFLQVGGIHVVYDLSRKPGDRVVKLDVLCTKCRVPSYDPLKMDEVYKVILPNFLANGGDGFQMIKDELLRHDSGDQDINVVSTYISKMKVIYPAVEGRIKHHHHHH

[4] = molecular target: T1, human CD73 expressed at the cell surface; assay: cell-based or functional assay; remark: listed apart in the source
[5] = molecular target: T1, human CD73 expressed at the cell surface; assay: cell-based or functional assay; remark: listed apart in the source
[6] = molecular target: T1, human CD73 expressed at the cell surface; assay: cell-based or functional assay; remark: listed apart in the source

Molecule | EC50 [1] | down-modulation of CD73 expression on MDA-MB-231 cells (10 µg/ml antibody, time course) [2] | EC50 for CD73 blockade (enzymatic activity of soluble recombinant human CD73-his, Cell Titer Glo luciferase read-out) [3] | EC50 for neutralization of cellular CD73 enzymatic activity, mean over MDA-MB-231, H292 and A375 cells (N=8) [4] | EC70 for neutralization of cellular CD73 enzymatic activity, mean over MDA-MB-231, H292 and A375 cells (N=8) [4] | EC100 for neutralization of cellular CD73 enzymatic activity, mean over MDA-MB-231, H292 and A375 cells (N=8) [4] | decrease of enzymatic activity of cellular CD73 (MDA-MB-231) [5] | EC50 for neutralization of enzymatic activity of cellular CD73 (MDA-MB-231 cells, free phosphate from AMP hydrolysis, Malachite Green) [6] | EC50 for neutralization of cellular CD73 enzymatic activity, mean over MDA-MB-231, H292 and A375 cells (N=2) [4]
antibody 7G2 (Life Technologies Corp.) | 0.037 µg/mL | > 50% |  |  |  |  |  |  | 
B1 |  |  | 0.41 µg/mL | 0.1 µg/mL | 0.15 µg/mL | 0.52 µg/mL | > 75% | 0.195 µg/mL | 
B2 |  |  | 1.29 µg/mL |  |  |  | > 75% | 0.319 µg/mL | 0.21 µg/mL
B3 |  |  | 0.41 µg/mL | 0.14 µg/mL | 0.18 µg/mL | 0.3 µg/mL | > 75% | 0.21 µg/mL | 
B4 |  |  | 0.33 µg/mL | 0.13 µg/mL | 0.19 µg/mL | 0.68 µg/mL | > 75% | 0.209 µg/mL | 

From EP3259288B1 (Innate Pharma, dated 2026)
